Legend:
[1] = target: collagen-exposing bone material of epiphysis (rat femur, 0.6 N hydrochloric acid for 18 hours) (rat (Wistar)); experiment: depletion from supernatant, SDS-PAGE of supernatant (FIG. 3B)
[2] = target: collagen-exposing bone material of diaphysis (rat femur, 0.6 N hydrochloric acid for 18 hours) (rat (Wistar)); experiment: depletion from supernatant, SDS-PAGE of supernatant (FIG. 4B)

For bFGF-PKD-CBD fusion protein, the amount of bone material at which the fusion protein (1.16 nmol) in the supernatant nearly disappeared [1] was 40 mg and the amount of bone material at which the fusion protein (1.16 nmol) in the supernatant nearly disappeared [2] was 80 mg.
